{
  "source": "the RNAGym collection of RNA variant scans (doi:10.1073/pnas.2313332121)",
  "parents": {"B1": {"name": "TPR t1 (parent)", "chain": "GACCAAUCUGCCCUCAGAGCUCGAGAACAUCUUCGGAUGCAGAGGAGGCAGGCUUCGGUGGCGCGAUAGCGCCAACGUCCUCAACCUCCAAUGCAUCCCACCACAUGAUGAUGCCUGAAGAGCCUUGGUUUUUUG"}},
  "data": [
    {"variants_of": "B1", "assay": "polymerase ribozyme fitness, log enrichment relative to wild type (log ratio); higher = more active; in vitro selection for triplet polymerase activity", "in_short": "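Fitness measures genotype enrichment against wild-type enrichment on a logarithmic scale, with inverse-variance-weighted averaging of replicates. The logarithm is base 2, and genotypes were kept only with ≥10 input reads and ≥1 read per output in Illumina sequencing. The sequenced libraries came from one triplicate in vitro selection round, including frozen incubation at −7 °C, of PCR-built, transcribed mutant libraries of each subunit of a heterodimeric triplet polymerase ribozyme.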", "values": [
      {"variant": "GAUCAAUCUGCCCUCAGAGCUCGAGAACAUCUUCGGAUGCAGAGGAGGCAGGCUUCGGUGGCCCGAUAGCGCCAACGCCCUCAACCUCCAAUGCAUCCCACCACAUGAUGAUGCCUGAAGAGCCUUGGUUUUUUG", "note": "[C3U G63C U78C]", "polymerase ribozyme fitness (log ratio)": -3.19},
      {"variant": "GAUCAAUCUGCCCUCAGAGCUCGAGAACAUCUUCGGAUGCAGAGGAGGCAGGCUUCGGUGGCGCGAUAGCGCCAACAUCCUCAACCUCCAAUGGAUCCCACCACAUGAUGAUGCCUGAAGAGCCUUGGUUUUUUG", "note": "[C3U G77A C94G]", "polymerase ribozyme fitness (log ratio)": -1.2},
      {"variant": "GAUCAAUCUGCCCUCAGAGCUCGAGAACAUCUGCGGAUGCAGAGGAGGCAGGUAUCGGUGGCGCGAUAGCGCUAACGUCCUCAACCACCAAUGCAUCCCACCACAUGAUGAUGCCUGAAGAGCAUUGGUUUUUUG", "note": "[C3U U33G C53U U54A C73U U87A C124A]", "polymerase ribozyme fitness (log ratio)": -4.16},
      {"variant": "GAUCAAUCUGCCCUCAGAGCUCGAGAACAUCUUCGGAUGCAGAGGAGGCAGGCUUCGGUGGCGCGAUAGCGUCAACGUCCUCAACCUCCAAUGCAUCCCACCACACGAUGAUGCCUGAAGAGCCUUGGUUUUUUG", "note": "[C3U C72U U106C]", "polymerase ribozyme fitness (log ratio)": -1.21},
      {"variant": "GAUCAAUCUGCCCUCAGAGCUCGAGAACAUCUUCGGAUGCAGAGGAGGCAGGCUUCGGUGGCGCGAUAGCGUCAACGUCCUCAACCUCCAAUGCAUCCCACCACAUGAUGAUGCCUGAAGAGCCUUGGUUUUUUG", "note": "[C3U C72U]", "polymerase ribozyme fitness (log ratio)": -0.173},
      {"variant": "GAUCAAUCUGCCCUCAGAGCUCGAGAACAUCUUCGGAUGCAGAGUAGGCAGGCUACGGUAGCGCGAUAGCGCCAACGUCCACAACCUCCAAUGCAUCCCACCACAUGAUGAUGCCUGAAGAGCCUUGGUUUUUUG", "note": "[C3U G45U U55A G60A U81A]", "polymerase ribozyme fitness (log ratio)": -1.52},
      {"variant": "GAUCAAACUGCCCUCAGAGCUCGAGAACAUCUUCGGAUGCAGAGGAGGCAGGCCUCGGUGGCGCGAUAGCGCCAACGUCCUCAACCUCCAAUGCGUCCCACCACAUGAUGAAGCCUGAAGAGCCUUGGUUUUUUG", "note": "[C3U U7A U54C A95G U112A]", "polymerase ribozyme fitness (log ratio)": 0.973},
      {"variant": "GAUCAAUCUGCCCUCAGAGCUCGAGAACAUCUUCGGAUGCAGAGGAGGCAGGCUUCGGUGGCGCGAUAGCGCUAACGUCCUCAACCUCCAAUGCAUCCCCCCACAUGAUGAUGCCUGAAGAGCCUUGGUUUUUUG", "note": "[C3U C73U A100C]", "polymerase ribozyme fitness (log ratio)": -1.36},
      {"variant": "GAUCAAUCGGCCCUCAGAGCUCGAGAACAUCUUCGGAUGCAGAGAAGGCAUGGUUCGGUGGCGCGAUAGCGCCAACGUCCUCAACCUCCAAUGCAUCCCACCACAUGAUGAUGCCUGAAGAGACUUGGUUUUUUG", "note": "[C3U U9G G45A G51U C53G C123A]", "polymerase ribozyme fitness (log ratio)": -5.27},
      {"variant": "GAUCAAUCUGCCCUCAGAGCUCGAGAACAUCUUCGGAUGCAGAGGAGGCAGGCUUCGGUGGCGCGAUAGCGCCAAGGUCCUCAACCUCCAAUGCAUCCCACCACAUGAUGAUGCCUGAAGAGCCUUGGUUUUUUG", "note": "[C3U C76G]", "polymerase ribozyme fitness (log ratio)": -1.27},
      {"variant": "GAUCAAUCUGCCCUCAGAGCUCGAGAACAUCUUCGGAUCCAGAGGAGGCAGGCUUCGGUGGCGCGAUAGCGCCAACGUCCUCAACCUCCAAUGCAUCCCACCACAUGAUGAUGCCUUAAGAGCCUUGGUUUUGUG", "note": "[C3U G39C G117U U133G]", "polymerase ribozyme fitness (log ratio)": -4.12},
      {"variant": "GAUCAAUCUGCCCUCAGAGCUCGAGAACAUCUUCGGAUGCAGAGGAGGCAGGCUUCGGUGGCGCGAUAGCGCCAACGUCCUCAACGUCCAAUGCAUCCCACCACAUGAUCAUGCCUGAAGAGCAUUGGUUUUUUG", "note": "[C3U C86G G110C C124A]", "polymerase ribozyme fitness (log ratio)": -5.57},
      {"variant": "GAUCAAUCUGCCCUCAGAGCUCGAGAACAUCUUCGGAUGCAGAGGAUGCCGGCUUCGGUGGCGCGAUAGCGCCAACGUCCUCAACCUCCAAUGCAUCCCACCACAUGAUGAUGCCUGAAGAGCCUUGGUUUUUUG", "note": "[C3U G47U A50C]", "polymerase ribozyme fitness (log ratio)": -2.21},
      {"variant": "GAUCAAUCUGCCCUCAGAGCUCGAGAACAUCUUCGGAUGCAGAGGAGCCAGGCUUCGGUGGCGCGAUAGCGCCAACGUCCUGAACCUCCAAUGCAUCCCACCACAUGAUGAUGCCUGAAGAGCCUUGGUUUUUUG", "note": "[C3U G48C C82G]", "polymerase ribozyme fitness (log ratio)": -1.66},
      {"variant": "GAUCAAUCUGCCCUCAGAGCUCGAGAACAUCUUCGGAUGCAGAGGAGGCAGGCUUCGGUGGCGCGAUAGCGCGAACGUCCUCGACCUCCAAUGCAUCCCACCACAUGAUGAUGCCUGAAGAGCCUUGGUUUUUUG", "note": "[C3U C73G A83G]", "polymerase ribozyme fitness (log ratio)": -2.1},
      {"variant": "GAUCAAUCUGCCCUCAGAGCUCGAGAACAUCUUCGGAUGCAGAGGAGGCAGGCUUCGGUGGCGCGAUAGCGCCAACGUCCUCAACCUCCAAUCCAUCCCACCACAUGAUGAAGCCUGAAGAGGCUUGGUUUUUUG", "note": "[C3U G93C U112A C123G]", "polymerase ribozyme fitness (log ratio)": -1.14},
      {"variant": "GAUCAAUCUGCCCACAGAGCUCGAGAACAUCUUCGGAUGCAGAGGAGGCAGGCUUCGGUGGCGCGAUAGCGCCAACGUCCUCAACCUCCAAUGCAUCCCACCACAUGAUGAUGCCUGAAGAGCCUUGGUUUUUUG", "note": "[C3U U14A]", "polymerase ribozyme fitness (log ratio)": -2.47},
      {"variant": "GAUCAAUCUGCCCUCAGAGCUCGAGAACAUCUUCGGAUGCAGAGGAAGCAGGCUUCGGUGGCGCGAUAGCGCCAACGUCCUCAACCUCCAAUGCAUCCCACCACAUGAUGAUGCCUGAAGAGCCUUGGUUUUUUG", "note": "[C3U G47A]", "polymerase ribozyme fitness (log ratio)": -0.64},
      {"variant": "GAUCAAUCUGCCCUCAGAGCUCGAGAACAUCUUCGAAUGCAGAGGAGGCCGGCUUCGGUGGCGCGAUAGCGCCAACGUCCUCAACCUCCAAUGCAUCCCACCACAUGAUGAUGCCUGAAUAGCCUUGGUUUUUUG", "note": "[C3U G36A A50C G120U]", "polymerase ribozyme fitness (log ratio)": -1.14},
      {"variant": "GAUCAACCUGCCCUCAGAGCUCGAGAACAUCUUCGGAUGCAGAGGAGUCAGGCUUCGGUGGCGCGAUAGUGCCAACGUCCUCAACCUCCAAUGCAUCCCACCACAUGAUGAUGCCUGAAGAGCCUUGGUUUUUUG", "note": "[C3U U7C G48U C70U]", "polymerase ribozyme fitness (log ratio)": -1.98},
      {"variant": "GAUCAAUCUGCCCUCAGAGCUCGAGAACAUCUUCGGAUGCAGAGGAGGCAGGCUUCGGUGGCGCGAUAGCGCCAACGUCCUCAACCUCCAAUGCAUCCCACCACAUGAUGAUUCCUGAAGAGCCUUGGUUUUUUG", "note": "[C3U G113U]", "polymerase ribozyme fitness (log ratio)": -2.47}
    ]}
  ]
}
